# Data as given in patent US20220396632A1 (VERSEAU THERAPEUTICS, published 2022).
# T1: Biotin Y46,48,51(SO3) PSGL-1(42-62) peptide (human, sulfotyrosine at Y46, Y48 and Y51; C-terminal Lys-biotin)
# T1 construct: also called fully sulfated N-terminal PSGL-1 peptide
# T1 peptide: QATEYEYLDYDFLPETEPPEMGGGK
# T2: E47A (C-terminal Lys-biotin)
# T2 construct: alanine-scan peptide; also called Biotin PSGL-1(42-62) E47A peptide; 47E
# T2 peptide: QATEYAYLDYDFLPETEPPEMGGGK
# T3: T44A (C-terminal Lys-biotin)
# T3 construct: alanine-scan peptide; also called Biotin PSGL-1(42-62) T44A peptide; 44T
# T3 peptide: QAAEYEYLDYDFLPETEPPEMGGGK
# T4: E61A (C-terminal Lys-biotin)
# T4 construct: alanine-scan peptide; also called Biotin PSGL-1(42-62) E61A peptide; 61E
# T4 peptide: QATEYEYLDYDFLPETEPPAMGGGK
# T5: P60A (C-terminal Lys-biotin)
# T5 construct: alanine-scan peptide; also called Biotin PSGL-1(42-62) P60A peptide; 60P
# T5 peptide: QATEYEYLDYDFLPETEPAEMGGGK
# T6: Biotin PSGL-1(42-62) E45A peptide (C-terminal Lys-biotin)
# T6 peptide: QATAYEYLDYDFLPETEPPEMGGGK
# T7: T57A (C-terminal Lys-biotin)
# T7 construct: alanine-scan peptide; also called Biotin PSGL-1(42-62) T57A peptide; 57T
# T7 peptide: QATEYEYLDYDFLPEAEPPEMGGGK
# T8: Y48A (C-terminal Lys-biotin)
# T8 construct: alanine-scan peptide; also called Biotin PSGL-1(42-62) Y48A peptide; 48Y
# T8 peptide: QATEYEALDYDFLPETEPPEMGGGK
# T9: P59A (C-terminal Lys-biotin)
# T9 construct: alanine-scan peptide; also called Biotin PSGL-1(42-62) P59A peptide; 59P
# T9 peptide: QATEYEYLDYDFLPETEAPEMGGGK
# T10: E58A (C-terminal Lys-biotin)
# T10 construct: alanine-scan peptide; also called Biotin PSGL-1(42-62) E58A peptide; 58E
# T10 peptide: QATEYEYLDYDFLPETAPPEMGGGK
# T11: Q42A (C-terminal Lys-biotin)
# T11 construct: alanine-scan peptide; also called Biotin PSGL-1(42-62) Q42A peptide; 42Q
# T11 peptide: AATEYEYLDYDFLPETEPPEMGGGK
# T12: Biotin PSGL-1(42-62) Y46A peptide (C-terminal Lys-biotin)
# T12 peptide: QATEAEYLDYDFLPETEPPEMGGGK
# T13: Biotin PSGL-1(42-62) Y51A peptide (C-terminal Lys-biotin)
# T13 peptide: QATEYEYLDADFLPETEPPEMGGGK
# T14: PSGL-1 endogenously expressed on HL-60 cells (UniProt Q14242 42-412)
# T14 construct: whole, on cells
# T14 sequence (looked up): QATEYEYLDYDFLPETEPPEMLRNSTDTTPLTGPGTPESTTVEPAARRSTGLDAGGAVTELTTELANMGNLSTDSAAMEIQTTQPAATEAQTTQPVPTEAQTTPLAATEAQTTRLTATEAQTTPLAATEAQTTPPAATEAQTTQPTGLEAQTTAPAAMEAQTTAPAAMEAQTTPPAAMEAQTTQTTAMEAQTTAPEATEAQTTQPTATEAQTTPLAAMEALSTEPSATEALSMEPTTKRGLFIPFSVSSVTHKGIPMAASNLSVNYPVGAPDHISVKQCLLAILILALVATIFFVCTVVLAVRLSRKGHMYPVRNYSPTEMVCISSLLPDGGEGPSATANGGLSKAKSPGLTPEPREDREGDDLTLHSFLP
# B1: 18F02 (antibody, V domains shown)
# VH: QVQLQQPGAELVKPGASVKLSCKASGYTFTSYWMHWVKQRPGQGLEWIGMIHPNSGRTNYNEKFKSKATLTVDKSSSTAYMQLSSLTSEDSAVYYCARSDYWGQGTTLTVSS
# VL: DIVMTQAAFSNPVTLGTSASISCRSSKSLLHSDGITYLYWFLQRPGQSPQLLIYRMSNLASGVPDRFSGSGSGTDFTLRISRVEAEDVGVYYCAQMLEFPRTFGGGTKLEIK
# notes: From mouse immunisation; only variable domains given
# B2: 20I15 (antibody, V domains shown)
# VH: EVKLVESGGGLVQPGGSLSLSCAASGFTFTDYYMSWVRQPPGKALEWLGFIRNKANGYTTEYSASVKGRFTISRDNSQSILYLQMNALRAEDSATYYCARTYLRRGYFDVWGTGTTVTVSS
# VL: DIVLTQSPASLAVSLGQRATISCRASKSVSTSGYSYMHWFQQKPGQPPKLLIYLASNLESGVPARFSGSGSGTDFTLNIHPVEEEDAATYYCQHSRELPLTFGAGTKLELK
# notes: From mouse immunisation; only variable domains given; also called 20115
# B3: 43B6 (antibody, V domains shown)
# VH: EVQLQQSGPDLVKPGALVKISCKASGYSFTAYYIHWVKQSHGKSLEWIGRVNPNTGGTSYNPKFKGKAILNVDKSSSTAYMELRSLTSEDSAVYYCARSGSPYYRYDDWGQGTTLTVSS
# VL: ENVLTQSPAIMSASPGEKVTMTCRASSTVNSTYLHWFQQKSGASPKLWIYGSSNLASGVPARFSGSGSGTSYSLTISSVEAEDAATYYCQQYSGYPLTFGAGTTLELK
# notes: Control anti-PSGL-1 mAb, recombinant; only variable domains given; also called 43B3
# Tests used:
# [1] = target: T1, Biotin Y46,48,51(SO3) PSGL-1(42-62) …; assay: ELISA, plate-bound mAb captures biotin 3 x sY peptide
# Protocol: A typical ELISA for N-terminal PSGL-1 reactive humanized mAbs binding to Y_{46,48,51}(SO₃) PSGL-1₍₄₂₋₆₂₎ involved coating high binding half-well plates (Corning Cat. #3690) with 3 ug/mL/25 ul per well of the mAbs or with an isotype hG4 control in PBS, pH 7.4, overnight at 4° C. […] Biotinylated Y_{46,48,51}(SO₃) PSGL-1₍₄₂₋₆₂₎ was added (25 ul per well) in duplicate at 2.8 uM in assay buffer (blocking buffer containing 0.05% tween 20) and serially diluted into test and control (just blocked) wells, and the plate incubated for 45 min at 37° C. The plate was washed ×3 and an appropriate HRP-conjugated streptavidin was added (25 ul per well; Jackson Immunoresearch, Cat. #016-030-084) and the plate was incubated for 45 min at 37° C. […] For each antibody, an EC50 value was determined from sigmoidal fitted peptide titration curve.
# E47A = target: T2, E47A; assay: alanine-scan ELISA, streptavidin-immobilized biotin peptide
# T44A = target: T3, T44A; assay: as above
# E61A = target: T4, E61A; assay: as above
# P60A = target: T5, P60A; assay: as above
# [2] = target: T6, Biotin PSGL-1(42-62) E45A peptide; assay: as above
# T57A = target: T7, T57A; assay: as above
# Y48A = target: T8, Y48A; assay: as above
# P59A = target: T9, P59A; assay: as above
# E58A = target: T10, E58A; assay: as above
# Q42A = target: T11, Q42A; assay: as above
# [3] = target: T12, Biotin PSGL-1(42-62) Y46A peptide; assay: as above
# [4] = target: T13, Biotin PSGL-1(42-62) Y51A peptide; assay: as above
# [5] = target: T14, PSGL-1 endogenously expressed on HL-60 …; assay: flow cytometry on HL-60 cells; against parent 20I15
# Protocol: A typical flow cytometry assay was performed by resuspending HL-60 cells in FACS buffer (5% FBS and 0.05% Sodium Azide in PBS, pH 7.2) on ice, pelleting cells by centrifugation at 500×g for 3 min, washing cells with FACS buffer, and then blocking Fc receptors on the cells with Fc block (human TruStain FcX™, BioLegend Cat. #422302) on ice for 10 min. After washing, 50,000 cells/50 ul in FACS buffer was added to each well of a 96-well round bottomed plate (Costar, Cat. #3797), and 50 ul of serially diluted (0.06 nM-1.0 uM) test or isotype control antibody was added into duplicate wells. The plate was covered and incubated on ice for 1 h. After washing, Phycoerythrin (PE) conjugated anti-human IgG secondary antibody (Abcam; Cat. #ab99825) was added to each well and the plate incubated in the dark on ice for 30 min. After washing, the cells were fixed (1% paraformaldhyde).
Binder,EC50 [1] [nM],binding result (E47A),binding result (T44A),binding result (E61A),binding result (P60A),binding result [2],binding result (T57A),binding result (Y48A),binding result (P59A),binding result (E58A),binding result (Q42A),binding result [3],binding result [4],HL-60 EC50 (normalized) [5] [fold]
B1,70,binds,binds,binds,binds,binds,binds,binds,binds,binds,binds,binds,binds,–
B2,–,–,–,–,–,–,–,–,–,–,–,–,–,1
B3,–,binds,binds,binds,binds,binds,binds,binds,binds,binds,binds,binds,binds,–
